Data published in article PMC3791872, “Ciprofloxacin is an inhibitor of the Mcm2-7 replicative helicase”.

How the values were obtained:
Assay in all cases: double filter binding; 1 mM ciprofloxacin (modest effect); Double filter binding, 150 nM helicase hexamer, 4 nM ssDNA, 20 min inhibitor preincubation at 37 C; binding buffer not stated in the material (helicase buffer:)
Mcm467 = Mcm467 (UniProt P30665;P53091;P38132 1-933;1-1017;1-845); conditions: chain copies: 2;2;2; label: 5'-32P; single strand
[1] = target: SV40 large T antigen (TAg) (SV40, UniProt P03070 1-708); conditions: chain copies: 6; label: 5'-32P; single strand
Mcm2-7 = Mcm2-7 (UniProt P29469;P24279;P30665;P29496;P53091;P38132 1-868;1-971;1-933;1-775;1-1017;1-845); conditions: copies: 1;1;1;1;1;1; label: 5'-32P; single strand

Measured: binding result

Mcm467, sequence (P30665 whole entry, chain 1 of 3): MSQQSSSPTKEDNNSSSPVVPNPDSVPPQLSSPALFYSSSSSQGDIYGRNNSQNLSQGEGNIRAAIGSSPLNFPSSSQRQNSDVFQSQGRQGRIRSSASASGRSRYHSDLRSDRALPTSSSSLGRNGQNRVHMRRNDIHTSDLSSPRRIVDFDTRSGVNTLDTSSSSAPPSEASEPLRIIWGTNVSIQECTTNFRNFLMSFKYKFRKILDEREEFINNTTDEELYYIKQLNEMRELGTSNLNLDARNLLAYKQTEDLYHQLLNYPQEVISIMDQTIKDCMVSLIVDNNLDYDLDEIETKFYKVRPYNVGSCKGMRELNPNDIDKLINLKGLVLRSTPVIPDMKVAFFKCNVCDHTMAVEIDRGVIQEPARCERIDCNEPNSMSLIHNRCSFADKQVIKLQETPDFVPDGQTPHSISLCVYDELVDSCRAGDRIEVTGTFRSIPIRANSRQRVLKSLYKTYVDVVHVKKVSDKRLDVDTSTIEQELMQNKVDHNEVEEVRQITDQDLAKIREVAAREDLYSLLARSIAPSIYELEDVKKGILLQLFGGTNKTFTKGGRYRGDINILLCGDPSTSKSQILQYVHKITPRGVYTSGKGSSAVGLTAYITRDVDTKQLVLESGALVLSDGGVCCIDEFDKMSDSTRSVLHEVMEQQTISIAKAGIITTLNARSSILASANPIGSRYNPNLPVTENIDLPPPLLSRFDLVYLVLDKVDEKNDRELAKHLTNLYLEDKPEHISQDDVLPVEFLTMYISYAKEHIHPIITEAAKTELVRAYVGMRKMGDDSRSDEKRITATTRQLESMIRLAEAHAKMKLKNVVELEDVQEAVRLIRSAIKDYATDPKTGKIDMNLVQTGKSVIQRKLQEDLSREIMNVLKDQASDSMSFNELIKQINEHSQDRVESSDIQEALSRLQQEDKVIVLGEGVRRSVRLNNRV
Mcm467, sequence (P53091 whole entry, chain 2 of 3): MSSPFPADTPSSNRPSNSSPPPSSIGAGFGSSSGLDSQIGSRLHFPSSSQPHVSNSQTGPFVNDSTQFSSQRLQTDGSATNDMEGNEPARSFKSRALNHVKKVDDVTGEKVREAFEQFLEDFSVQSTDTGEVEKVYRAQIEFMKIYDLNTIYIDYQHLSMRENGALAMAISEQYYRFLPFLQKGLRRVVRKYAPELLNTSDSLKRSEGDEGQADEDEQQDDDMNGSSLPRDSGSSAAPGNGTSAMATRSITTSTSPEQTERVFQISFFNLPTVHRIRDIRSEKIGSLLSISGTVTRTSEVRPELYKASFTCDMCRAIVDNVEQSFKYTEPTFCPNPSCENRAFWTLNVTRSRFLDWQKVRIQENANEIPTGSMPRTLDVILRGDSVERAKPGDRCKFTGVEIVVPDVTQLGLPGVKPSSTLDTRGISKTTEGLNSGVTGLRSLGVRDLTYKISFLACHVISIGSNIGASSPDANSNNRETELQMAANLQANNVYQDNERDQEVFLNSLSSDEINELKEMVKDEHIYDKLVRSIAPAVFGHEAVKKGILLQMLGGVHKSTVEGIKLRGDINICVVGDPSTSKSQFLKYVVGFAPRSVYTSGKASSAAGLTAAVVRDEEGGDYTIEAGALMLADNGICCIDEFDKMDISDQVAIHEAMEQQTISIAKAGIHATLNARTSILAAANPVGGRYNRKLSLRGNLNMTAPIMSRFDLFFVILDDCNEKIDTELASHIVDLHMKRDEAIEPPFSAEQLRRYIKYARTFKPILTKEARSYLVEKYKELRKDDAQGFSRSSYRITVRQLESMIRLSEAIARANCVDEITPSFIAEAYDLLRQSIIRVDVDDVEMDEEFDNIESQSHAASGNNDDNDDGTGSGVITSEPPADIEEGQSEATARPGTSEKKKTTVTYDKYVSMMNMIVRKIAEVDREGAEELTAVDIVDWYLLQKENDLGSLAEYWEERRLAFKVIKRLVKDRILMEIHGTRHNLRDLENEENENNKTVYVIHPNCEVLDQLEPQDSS
Mcm467, sequence (P38132 whole entry, chain 3 of 3): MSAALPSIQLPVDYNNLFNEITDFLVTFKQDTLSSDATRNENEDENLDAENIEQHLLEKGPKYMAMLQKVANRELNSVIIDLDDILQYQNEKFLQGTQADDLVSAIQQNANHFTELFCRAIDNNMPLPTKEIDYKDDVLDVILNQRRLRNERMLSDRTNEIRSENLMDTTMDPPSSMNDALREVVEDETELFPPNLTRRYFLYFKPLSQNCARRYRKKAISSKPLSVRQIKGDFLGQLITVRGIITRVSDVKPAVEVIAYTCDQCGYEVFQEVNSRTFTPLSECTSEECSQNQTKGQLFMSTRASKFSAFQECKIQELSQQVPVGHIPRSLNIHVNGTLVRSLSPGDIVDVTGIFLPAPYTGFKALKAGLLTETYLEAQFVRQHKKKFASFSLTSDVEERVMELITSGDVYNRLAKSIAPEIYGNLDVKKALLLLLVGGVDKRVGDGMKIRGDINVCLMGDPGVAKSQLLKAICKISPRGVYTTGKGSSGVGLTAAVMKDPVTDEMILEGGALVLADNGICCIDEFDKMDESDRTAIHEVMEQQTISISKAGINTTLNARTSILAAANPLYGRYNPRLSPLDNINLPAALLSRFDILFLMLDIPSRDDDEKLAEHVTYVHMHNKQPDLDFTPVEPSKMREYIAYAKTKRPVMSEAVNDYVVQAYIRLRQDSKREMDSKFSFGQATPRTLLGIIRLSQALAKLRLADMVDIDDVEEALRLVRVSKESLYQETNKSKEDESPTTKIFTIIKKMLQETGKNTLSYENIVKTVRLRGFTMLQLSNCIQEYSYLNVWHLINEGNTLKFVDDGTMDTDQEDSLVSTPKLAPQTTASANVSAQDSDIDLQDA
SV40 large T antigen (TAg), sequence (P03070 whole entry): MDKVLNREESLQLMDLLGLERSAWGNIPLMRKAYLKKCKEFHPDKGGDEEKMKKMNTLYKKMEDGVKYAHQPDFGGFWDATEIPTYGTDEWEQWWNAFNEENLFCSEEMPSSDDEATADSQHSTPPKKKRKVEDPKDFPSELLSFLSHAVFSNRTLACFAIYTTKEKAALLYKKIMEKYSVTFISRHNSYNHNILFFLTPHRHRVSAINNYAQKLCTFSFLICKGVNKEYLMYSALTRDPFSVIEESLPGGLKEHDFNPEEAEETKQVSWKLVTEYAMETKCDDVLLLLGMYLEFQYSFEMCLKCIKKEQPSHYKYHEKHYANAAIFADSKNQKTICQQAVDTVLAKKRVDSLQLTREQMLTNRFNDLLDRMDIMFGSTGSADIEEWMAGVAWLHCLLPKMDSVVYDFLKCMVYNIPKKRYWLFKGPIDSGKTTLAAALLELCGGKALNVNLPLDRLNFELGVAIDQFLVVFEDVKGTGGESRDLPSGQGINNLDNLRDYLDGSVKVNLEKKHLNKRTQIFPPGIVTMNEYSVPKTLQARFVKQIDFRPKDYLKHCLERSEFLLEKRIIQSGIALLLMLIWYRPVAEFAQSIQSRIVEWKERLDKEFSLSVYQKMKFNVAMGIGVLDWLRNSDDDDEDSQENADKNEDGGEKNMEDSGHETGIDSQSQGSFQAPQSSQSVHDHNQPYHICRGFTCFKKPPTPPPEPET

TGTCTAATCCCGAAAGGCCCTGCCACTGAAATCAACACCTAAAGCATTGA (ssDNA) [oligo 826]
binds: all assays above
